Source: the Human Domainome abundance scans (Beltran et al. 2025)

B1: COUP transcription factor 1, residues 83 to 159; numbered along this chain, P10589 (parent)
chain: HIECVVCGDKSSGKHYGQFTCEGCKSFFKRSVRRNLTYTCRANRNCPIDQHHRNQCQYCRLKKCLKVGMRREAVQRG

Variants of: B1
Experiment: abundance fitness (aPCA) (normalised: wild type 0, dead -1); higher = more abundant; growth selection in yeast, the domain comes from the species named
Conditions: Homo sapiens

Abundance fitness of substitutions, site by site:
R53: S -0.178, M -0.099, K -0.218, H -0.231, L -0.081, Y 0.224, N -0.044, I -0.169, P 0.111, W -0.288, D 0.055, V -0.069, F -0.495, A 0.022, E 0.018, C -0.001, Q 0.12, T 0.017
I48: G -0.466, R -0.461, P -0.788, M -0.13, H -0.93, F -0.11, A -0.366, W -0.283, L -0.147, Q -0.125, D -0.302, E -0.23, Y -0.518, K -0.661, C -0.25, N -0.151, T -0.094, S -0.286
N54: I 0.092, E 0.075, C -0.314, D -0.071, M 0.015, R -0.353, P 0.006, S -0.033, G -0.153, F -0.222, L -0.029, H -0.116, Q -0.091, K -0.089
N45: A -0.076, S 0.061, V -0.058, Q 0.13, P 0.015, M -0.245, Y -0.595, L -0.322, G -0.004, D -0.035, W -0.049, H -0.182, C -0.202, E -0.025, K -0.265, R 0.067
H52: M -0.019, E 0.08, P 0.09, K -0.035, F -0.068, I 0.07, C -0.092, R -0.154, D -0.092, A 0.041, S -0.102, Y -0.225, W -0.263, N -0.1, Q 0.095, V 0.023, G 0.035
D49: N -0.003, P -0.323, S -0.044, V -0.141, F 0.017, I -0.199, W -0.13, L -0.122, G -0.108, E -0.064, Q -0.083, T -0.152, R -0.313, K -0.343, H -0.269, C -0.726, M -0.175, Y -0.261
H51: I -0.244, K 0.059, P -0.138, N 0.102, G 0.034, T -0.091, R -0.16, L 0.059, V -0.051, Q 0.081, A 0.039, W 0.012, D -0.022, M 0.025, E -0.041, C -0.118, Y -0.09
Q50: E 0.05, R -0.119, S -0.086, T -0.076, D 0.03, I 0.117, G -0.149, C -0.078, V -0.086, W -0.06, Y -0.066, M -0.088, F -0.299, A 0.063, N 0.012, K 0.097
R44: Y -0.432, W -0.07
P47: L -0.141, S -0.172, V -0.003, H -0.296, G -0.153, I -0.137, M -0.267, C -0.206, R -0.188, N -0.679, W -0.217, F -0.023, T -0.14, D -0.271, K -0.035, A -0.008
C46: M -0.654, I -0.267, A -0.519, L -0.492, Q -0.18, F -0.501, W -0.779, E -0.229, P -0.587, K -0.624, H -0.536, D -0.572, R -0.602, S -0.604, V -0.433
